Data taken from article PMC8152475 (Biomedicines, 2021).

T1: TBK1 (Homo sapiens, UniProt Q9UHD2)
T1 sequence (Q9UHD2 1-729): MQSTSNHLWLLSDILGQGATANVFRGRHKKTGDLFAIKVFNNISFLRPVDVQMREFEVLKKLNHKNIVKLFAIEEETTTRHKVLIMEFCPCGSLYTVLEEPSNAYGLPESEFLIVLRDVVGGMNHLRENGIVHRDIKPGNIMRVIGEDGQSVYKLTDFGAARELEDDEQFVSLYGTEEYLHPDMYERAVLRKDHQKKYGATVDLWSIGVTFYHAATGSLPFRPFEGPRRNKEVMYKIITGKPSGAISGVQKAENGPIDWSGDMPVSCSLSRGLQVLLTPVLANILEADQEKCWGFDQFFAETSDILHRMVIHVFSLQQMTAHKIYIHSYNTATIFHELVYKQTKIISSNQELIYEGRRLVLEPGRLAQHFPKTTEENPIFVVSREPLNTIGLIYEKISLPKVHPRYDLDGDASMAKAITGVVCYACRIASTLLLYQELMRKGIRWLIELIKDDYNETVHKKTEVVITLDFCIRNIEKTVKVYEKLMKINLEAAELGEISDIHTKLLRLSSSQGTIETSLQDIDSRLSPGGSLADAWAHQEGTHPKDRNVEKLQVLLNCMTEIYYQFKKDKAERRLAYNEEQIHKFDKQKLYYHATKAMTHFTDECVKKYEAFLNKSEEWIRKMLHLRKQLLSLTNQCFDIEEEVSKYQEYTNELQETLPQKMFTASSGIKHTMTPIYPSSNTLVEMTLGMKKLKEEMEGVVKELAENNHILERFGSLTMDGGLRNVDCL

B1: MPT64: secretory immunodominant antigen of MTB, located in the RD2 region (protein)
chain: APKTYCEELKGTDTGQACQIQMSDPAYNINISLPSYYPDQKSLENYIAQTRDKFLSAATSSTPREAPYELNITSATYQSAIPPRGTQAVVLKVYQNAGGTHPTTTYKAFDWDQAYRKPITYDTLWQADTDPLPVVFPIVQGELSKQTGQQVSIAPNAGLDPVNYQNFAVTNDGVIFFFNPGELLPEAAGPTQVLVPRSAIDSMLA
B2: MPT63: secretory immunodominant antigen of MTB (protein)
chain: AYPITGKLGSELTMTDTVGQVVLGWKVSDLKSSTAVIPGYPVAGQVWEATATVNAIRGSVTPAVSQFNARTADGINYRVLWQAAGPDTISGATIPQGEQSTGKIYFDVTGPSPTIVAMNNGMEDLLIWEP

Tests used:
TBK1 = target: T1, TBK1; assay type: binding
p47phox = assay type: binding

| Molecule | domain of TBK1 required for binding (TBK1) | domain of p47phox required for binding (p47phox) |
| --- | --- | --- |
| B1 | The kinase domain (1–301) in TBK1 and HK2 domain in HK2 were found to be essential for their interaction with MPT64 |  |
| B2 | the kinase domain in TBK1 was essential to bind MPT63 | the PX domain in p47phox was important for the interaction with MPT63 |
